Data published in patent publication US20190352390A1.
Where a chain is given by its changes, count along the chain named.

B1: Antibody RF3 (antibody, V domains shown)
VL: DVVMTQTPLSLPVSLGDQASISCRSSQSLVHSNGNTYLHWYLQKPGQSPKLLIYIVSNRFSGVPDRFGGSGSGTDFTLKISRVEAEDLGVYFCSQSTHIPYTFGGGTKLEMK
VH: QVQLQQPGAELVRPGASVKLSCKASGYTFTNYWMNWWKQRPGQGLEWIGMIDPSDSETHYNQVFKDKATLTVDISSTTAYMHLSSLTSEDSAVYYCARDFGWGQGTLVTVSA
B2: Antibody RF1 (antibody, V domains shown)
VL: B1 VL with I21M, N35D, T36S, I55K, F60L, G68S, V90I, I99V, M111I
VH: QVQLQQPGAELVKPGASVKMSCKASGYTFTNYWLHWVMQRPGQGLEWIGMIDPSDSFTTYNQKFKGKATLTVDTSSSTAFMQLSSLTSEDSAVYYCTTVDHWGRGTTLTVSS

Target: IL-37 expressed by splenocytes of IL-37 transgenic (IL-37tg) mice (human), Q9NZH6
Sequence (Q9NZH6 whole entry): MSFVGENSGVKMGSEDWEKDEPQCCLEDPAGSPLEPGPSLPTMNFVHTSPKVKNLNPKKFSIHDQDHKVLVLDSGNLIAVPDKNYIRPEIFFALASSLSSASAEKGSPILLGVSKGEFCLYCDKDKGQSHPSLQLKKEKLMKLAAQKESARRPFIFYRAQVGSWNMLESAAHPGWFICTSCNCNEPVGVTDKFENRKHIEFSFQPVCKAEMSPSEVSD
Test: cell-based or functional assay

Binder	IL-6 abundance in supernatant of LPS-stimulated IL-37tg mouse splenocytes (ELISA) [%]
B1	< 40
B2	< 40
